Source: article PMC9674853, “Biasing the conformation of ELMO2 reveals that myoblast fusion can be exploited to improve muscle regeneration” (Nature Communications, 2022)

Target: T1, murine ELMO2 full-length, wild type (mouse, UniProt Q8BHL5 1-732)
T1 construct: ELMO2, murine cDNA cloned into pGEX4T1; called full-length in the ITC methods; Thrombin was added to the glutathione eluates overnight before size exclusion; also called ELMO2 WT; WT ELMO2; source: E. coli BL21 codon+, purified (glutathione resin, thrombin, S75 size exclusion)
T1 sequence (looked up): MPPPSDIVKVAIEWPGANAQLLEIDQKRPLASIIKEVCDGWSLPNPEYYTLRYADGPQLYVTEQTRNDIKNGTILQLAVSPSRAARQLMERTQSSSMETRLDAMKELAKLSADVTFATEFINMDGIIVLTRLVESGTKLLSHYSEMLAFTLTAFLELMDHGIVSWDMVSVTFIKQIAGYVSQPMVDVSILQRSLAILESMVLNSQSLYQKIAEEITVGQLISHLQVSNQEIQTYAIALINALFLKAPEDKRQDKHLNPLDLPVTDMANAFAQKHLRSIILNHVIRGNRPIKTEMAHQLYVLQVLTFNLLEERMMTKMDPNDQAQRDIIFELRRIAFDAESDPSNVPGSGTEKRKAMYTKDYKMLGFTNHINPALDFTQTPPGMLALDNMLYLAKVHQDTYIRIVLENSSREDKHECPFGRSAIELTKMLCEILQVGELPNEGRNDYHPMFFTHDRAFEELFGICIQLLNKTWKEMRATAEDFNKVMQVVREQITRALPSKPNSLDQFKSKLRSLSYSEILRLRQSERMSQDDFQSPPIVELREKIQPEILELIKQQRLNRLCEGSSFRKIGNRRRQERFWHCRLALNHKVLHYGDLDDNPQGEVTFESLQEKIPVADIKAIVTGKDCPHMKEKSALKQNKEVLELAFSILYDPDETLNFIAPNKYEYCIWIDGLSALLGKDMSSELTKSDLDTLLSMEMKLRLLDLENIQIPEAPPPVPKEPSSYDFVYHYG
Test: ITC; 500 μM RHOG titrated into 40 μM Elmo2 full-length (WT or L43A); MicroCal ITC200, 25 °C; 20 mM Tris pH 7.5, 100 mM NaCl, 5 mM MgCl2, 1 mM DTT; one-site binding model
Settings: both partners purified

Kd: 10.3 µM
B1: human RHOG (residues 1-179) (domain or fragment)
chain: not shown
notes: RHOG, human, residues 1-179, cloned into pDEST17 with a thrombin cleavage site between the 6xHIS-tag and the GTPase; For NMR uniformly 15N-labelled (M9 medium with 15NH4Cl) and loaded with GMPPNP; For ITC made in LB; also called RHOG-GMPPNP; HIS-RHOG; source: E. coli BL21 codon+, purified (Ni-NTA, thrombin cleavage, S75 size exclusion)
